Measured values from article PMC4920709.

Target: Proprotein Convertase Subtilisin/Kexin type 9 (PCSK9), human plasma (human (endogenous in plasma)) (UniProt Q8NBP7)
Sequence of UniProt Q8NBP7 (Q8NBP7 153-692): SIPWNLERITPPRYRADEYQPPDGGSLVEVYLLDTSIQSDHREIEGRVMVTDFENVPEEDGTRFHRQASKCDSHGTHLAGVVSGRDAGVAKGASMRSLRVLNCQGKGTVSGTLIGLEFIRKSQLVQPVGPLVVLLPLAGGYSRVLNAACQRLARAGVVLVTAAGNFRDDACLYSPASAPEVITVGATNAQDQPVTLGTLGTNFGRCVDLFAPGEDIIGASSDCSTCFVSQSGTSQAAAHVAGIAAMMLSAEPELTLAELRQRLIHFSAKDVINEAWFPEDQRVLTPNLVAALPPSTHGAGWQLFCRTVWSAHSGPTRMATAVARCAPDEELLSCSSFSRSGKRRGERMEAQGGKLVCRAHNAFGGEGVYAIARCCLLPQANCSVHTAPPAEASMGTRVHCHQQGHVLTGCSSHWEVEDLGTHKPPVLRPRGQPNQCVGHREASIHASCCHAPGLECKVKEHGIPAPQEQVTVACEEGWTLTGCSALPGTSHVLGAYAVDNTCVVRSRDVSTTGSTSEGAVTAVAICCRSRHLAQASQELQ

percent of plasma PCSK9 associated with apoB: 37%
Substance: apolipoprotein B-100 (apoB-100) of human plasma LDL and Lp(a) (from UniProt P04114 28-4563) (natural protein)
